Data: PMC7176140, “Thermal stability analyses of human PERIOD-2 C-terminal domain using dynamic light scattering and circular dichroism” (PLoS ONE, 2020)

Biological target: the molecule itself
Assay: SEC; analytical Superdex 200 Increase 10/300 GL; hPER2c dimer fraction treated with 20mM DTT for 36hrs; buffer 20mM Tris-base pH7.5, 50mM NaCl, 20mM DTT; calibrated with molecular weight standards

B1: human PERIOD-2 C-terminal domain (recombinant hPER2c, residues 1130 to 1252) (domain or fragment, UniProt O15055 1130-1252, looked up)
chain: CVLQDPIWLLMADADSSVMMTYQLPSRNLEAVLKEDREKLKLLQKLQPRFTESQKQELREVHQWMQTGGLPAAIDVAECVYCENKEKGNICIPYEEDIPSLGLSEVSDTKEDENGSPLNHRIE
notes: C-terminal domain of human PER2 (PERIOD-2), residues 1130 to 1252; Elutes from SEC as an aggregated form, 40mer, 20mer and dimer; The authors conclude that disulfide bonds stabilise the dimer; No tag removal is described; also called human PER2c; not shown: His tag (from the vector pCold I)
- stoichiometry N: 6
